Data: patent US20140087995A1 (published 2014)
Numbered stars: 1 amine (or outer) side, 2 acyl side, 3 side chain; on linkers, the order of the positions; unused ones are H or OH. Bridge positions count the residues as written; N and C are the ends. Side chains are listed from the residue outwards. Ends that are not written are not given here. * marks the point of attachment. C20 diacid = O=C(O)CCCCCCCCCCCCCCCCCCC(=O)*; γGlu = O=C(O)[C@H](CCC(=O)[*:2])N[*:1]; AEEA = NCCOCCOCC(=O)O

T1: rat calcitonin receptor (rat, UniProt P32214 25-516)
T1 construct: whole, on cells; Used as membranes prepared from the transfected cells; also called rCTR; rCT
T1 sequence (looked up): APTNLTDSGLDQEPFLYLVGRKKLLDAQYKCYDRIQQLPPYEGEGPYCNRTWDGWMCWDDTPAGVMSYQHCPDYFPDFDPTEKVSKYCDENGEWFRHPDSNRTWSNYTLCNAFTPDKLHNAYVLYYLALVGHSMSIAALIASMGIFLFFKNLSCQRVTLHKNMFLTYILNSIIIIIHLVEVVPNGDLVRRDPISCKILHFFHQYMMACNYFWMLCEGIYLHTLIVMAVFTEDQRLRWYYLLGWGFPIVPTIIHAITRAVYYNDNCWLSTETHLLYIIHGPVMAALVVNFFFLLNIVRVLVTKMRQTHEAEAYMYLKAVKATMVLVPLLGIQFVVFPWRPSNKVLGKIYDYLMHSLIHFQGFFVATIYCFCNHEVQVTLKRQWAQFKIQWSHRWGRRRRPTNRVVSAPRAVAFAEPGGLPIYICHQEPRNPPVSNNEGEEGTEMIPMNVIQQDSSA

T2: human calcitonin receptor (human, UniProt P30988 25-474)
T2 construct: whole, on cells; Used as membranes prepared from the transfected cells; also called hCTR; hCT
T2 sequence (looked up): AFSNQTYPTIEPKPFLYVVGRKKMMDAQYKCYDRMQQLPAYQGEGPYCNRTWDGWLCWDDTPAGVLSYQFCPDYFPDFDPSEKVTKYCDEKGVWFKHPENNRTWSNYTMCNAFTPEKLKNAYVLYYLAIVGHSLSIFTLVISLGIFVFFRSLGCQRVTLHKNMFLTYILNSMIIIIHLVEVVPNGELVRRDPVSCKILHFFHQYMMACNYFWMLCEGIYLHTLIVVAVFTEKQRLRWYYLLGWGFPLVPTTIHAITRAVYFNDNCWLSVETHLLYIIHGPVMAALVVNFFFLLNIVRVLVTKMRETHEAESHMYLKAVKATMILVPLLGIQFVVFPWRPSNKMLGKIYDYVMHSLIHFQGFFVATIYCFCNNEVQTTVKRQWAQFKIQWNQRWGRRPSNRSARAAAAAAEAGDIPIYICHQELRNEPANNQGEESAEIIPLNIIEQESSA

B1: N^ε1-[2-[2-[2-[[(4S)-4-carboxy-4-(19-carboxynonadecanoylamino)butanoyl]amino]ethoxy]ethoxy]acetyl]-[His14,Arg17,Pro21,Pro27]-h-amylin (peptide)
peptide: K([AEEA-γGlu-C20 diacid])CNTATCATQRLAHFLRHSSPNFGAIPSSTNVGSNTY-NH2
modifications: disulfide 2-7; N-terminus assumed
SMILES: CC[C@H](C)[C@H](NC(=O)[C@H](C)NC(=O)CNC(=O)[C@H](Cc1ccccc1)NC(=O)[C@H](CC(N)=O)NC(=O)[C@@H]1CCCN1C(=O)[C@H](CO)NC(=O)[C@H](CO)NC(=O)[C@H](Cc1c[nH]cn1)NC(=O)[C@H](CCCNC(=N)N)NC(=O)[C@H](CC(C)C)NC(=O)[C@H](Cc1ccccc1)NC(=O)[C@H](Cc1c[nH]cn1)NC(=O)[C@H](C)NC(=O)[C@H](CC(C)C)NC(=O)[C@H](CCCNC(=N)N)NC(=O)[C@H](CCC(N)=O)NC(=O)[C@@H](NC(=O)[C@H](C)NC(=O)[C@@H]1CSSC[C@H](NC(=O)[C@@H](N)CCCCNC(=O)COCCOCCNC(=O)CC[C@H](NC(=O)CCCCCCCCCCCCCCCCCCC(=O)O)C(=O)O)C(=O)N[C@@H](CC(N)=O)C(=O)N[C@@H]([C@@H](C)O)C(=O)N[C@@H](C)C(=O)N[C@@H]([C@@H](C)O)C(=O)N1)[C@@H](C)O)C(=O)N1CCC[C@H]1C(=O)N[C@@H](CO)C(=O)N[C@@H](CO)C(=O)N[C@H](C(=O)N[C@@H](CC(N)=O)C(=O)N[C@H](C(=O)NCC(=O)N[C@@H](CO)C(=O)N[C@@H](CC(N)=O)C(=O)N[C@H](C(=O)N[C@@H](Cc1ccc(O)cc1)C(N)=O)[C@@H](C)O)C(C)C)[C@@H](C)O
notes: Analogue of human amylin; disulfide and C-terminal amide as told for h-amylin; also called compound 69
B2: N^ε1-[2-[2-[2-(19-carboxynonadecanoylamino)ethoxy]ethoxy]acetyl]-[Arg17,Pro21,Pro27,His34]-h-amylin (peptide)
peptide: K([AEEA-C20 diacid])CNTATCATQRLANFLRHSSPNFGAIPSSTNVGHNTY-NH2
modifications: disulfide 2-7; N-terminus assumed
SMILES: CC[C@H](C)[C@H](NC(=O)[C@H](C)NC(=O)CNC(=O)[C@H](Cc1ccccc1)NC(=O)[C@H](CC(N)=O)NC(=O)[C@@H]1CCCN1C(=O)[C@H](CO)NC(=O)[C@H](CO)NC(=O)[C@H](Cc1c[nH]cn1)NC(=O)[C@H](CCCNC(=N)N)NC(=O)[C@H](CC(C)C)NC(=O)[C@H](Cc1ccccc1)NC(=O)[C@H](CC(N)=O)NC(=O)[C@H](C)NC(=O)[C@H](CC(C)C)NC(=O)[C@H](CCCNC(=N)N)NC(=O)[C@H](CCC(N)=O)NC(=O)[C@@H](NC(=O)[C@H](C)NC(=O)[C@@H]1CSSC[C@H](NC(=O)[C@@H](N)CCCCNC(=O)COCCOCCNC(=O)CCCCCCCCCCCCCCCCCCC(=O)O)C(=O)N[C@@H](CC(N)=O)C(=O)N[C@@H]([C@@H](C)O)C(=O)N[C@@H](C)C(=O)N[C@@H]([C@@H](C)O)C(=O)N1)[C@@H](C)O)C(=O)N1CCC[C@H]1C(=O)N[C@@H](CO)C(=O)N[C@@H](CO)C(=O)N[C@H](C(=O)N[C@@H](CC(N)=O)C(=O)N[C@H](C(=O)NCC(=O)N[C@@H](Cc1c[nH]cn1)C(=O)N[C@@H](CC(N)=O)C(=O)N[C@H](C(=O)N[C@@H](Cc1ccc(O)cc1)C(N)=O)[C@@H](C)O)C(C)C)[C@@H](C)O
notes: Analogue of human amylin; disulfide and C-terminal amide as told for h-amylin; also called compound 91

Key:
rat calcitonin receptor [1] = target: T1, rat calcitonin receptor; assay: ratio of binding IC50 at rat calcitonin receptor to IC50 at rat amylin receptor (reference)
[2] = target: T2, human calcitonin receptor; assay: ratio of binding IC50 at human calcitonin receptor to IC50 at human amylin receptor (reference)
Method: The resulting pellet was resuspended, homogenized and centrifuged (20.000 rpm, 15 min) in a buffer containing 20 mM Na-HEPES and 0.1 mM EDTA (pH 7.4, buffer 2). The resulting pellet was resuspended in buffer 2 and protein concentration was measured (BCA protein Assay, Pierce). The homogenate was kept cold during the whole procedure. The membranes were kept at −80° C. until use. The assay was performed in a 384 well Optiplate (PerkinElmer) in a total volume of 40 ul. Membranes were mixed with SPA beads. Final concentration of membranes 35 ng/μL final and SPA beads was 0.05 mg/well. Test-compounds were dissolved in DMSO and further diluted in assay buffer (50 mM Hepes, pH 7.4, 1 mM CaCl2, 5 mM MgCl₂, 0.1% OA and 0.02% Tween20). […] The final mixture was incubated with shaking at 400 rpm for 120 min at 25° C. prior to centrifugation (1500 rpm, 10 min). Samples were analyzed on TopCounter™ (Packard). The IC₅₀ was calculated using (one site binding competition analysis) GraphPad Prism5 as a measure of receptor affinity.
Membranes were prepared in the following way; the cells were rinsed with PBS and incubated with Versene for approximately 5 min before harvesting. The cells were flushed with PBS and the cell-suspension was centrifuged for 5 min at 1000 rpm. Cells were homogenized (Ultrathurrax) in a buffer containing 20 mM Na-HEPES and 10 mM EDTA (pH 7.4) and centrifuged at 20.000 rpm for 15 min. The resulting pellet was resuspended, homogenized and centrifuged (20.000 rpm, 15 min) in a buffer containing 20 mM Na-HEPES and 0.1 mM EDTA (pH 7.4, buffer 2). The resulting pellet was resuspended in buffer 2 and protein concentration was measured (BCA protein Assay, Pierce). The homogenate was kept cold during the whole procedure. The membranes were kept at −80° C. until use. Assay was performed in a 384 well Optiplate (PerkinElmer) in a total volume of 40 ul. Membranes were mixed with SPA beads.

rat calcitonin receptor [3] = target: T1, rat calcitonin receptor; assay: SPA competition with 125I-calcitonin, membranes with rat calcitonin receptor (Assay VIII)

Binder | Ratio rCT/rAmylin binding (rat calcitonin receptor [1]) | Ratio hCT/hAmylin binding [2] | IC50 (rat calcitonin receptor [3])
B1 | 104 | 65.3 | 46.8 nM
B2 | 76.3 | 101 | 29.4 nM
